# Publication PMC10957929
# Residue numbers refer to the chain shown, from its start.
# Experiments:
# [1] = target: T1, GST-DRG9Nip (F267G) F267G (Oryza sativa ssp. japonica cv. Nipponbare) (UniProt Q69P58); assay: EMSA; details: 20 mM Hepes pH 7.5, 20 mM KCl2 (so in the source), 1 mM MgCl2, 10 mM ZnCl2, 5 mM DTT, 10% glycerol, 0.1% NP-40, room temperature, 1 h; 6% native PAGE, 0.5x TBE
# T1 sequence: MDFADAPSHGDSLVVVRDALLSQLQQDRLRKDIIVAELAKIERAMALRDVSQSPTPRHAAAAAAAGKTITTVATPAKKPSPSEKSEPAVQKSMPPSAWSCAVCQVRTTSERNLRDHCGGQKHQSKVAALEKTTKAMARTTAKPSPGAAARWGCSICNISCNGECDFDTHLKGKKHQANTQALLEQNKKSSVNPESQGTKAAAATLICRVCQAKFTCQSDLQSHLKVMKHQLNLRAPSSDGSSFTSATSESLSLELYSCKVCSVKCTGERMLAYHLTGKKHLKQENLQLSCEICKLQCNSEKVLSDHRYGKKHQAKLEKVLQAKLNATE
# [2] = target: T2, GST-DRG9Nip (N186S) N186S (Oryza sativa ssp. japonica cv. Nipponbare) (UniProt Q69P58); assay: EMSA; details: 20 mM Hepes pH 7.5, 20 mM KCl2 (so in the source), 1 mM MgCl2, 10 mM ZnCl2, 5 mM DTT, 10% glycerol, 0.1% NP-40, room temperature, 1 h; 6% native PAGE, 0.5x TBE
# T2 sequence: T1 sequence with N186S, G267F
sequence,measurement,setting,value
GGGCUCAAAUUAAUUAGCCAGUGAAAAAUCAAAUUACAGAGUUGCUUAAUUUUUUUACUAGUAGAACGCAACAGUAAAAAGAAUUAACAGCAGUGAAUUAUUAGUUAAUUAGCUAGGGAGUUGAAAUAGUUUAGCGGUCAUGCACUACUGAUUUUUAAUUAGUGCAGACAACGACCGCGUGUGUGUAUAUGCAUGUAUACCUUUUACUGUAUCUUCAGAUUGUGUAUAUAUAUCAUAUAUGUACAGGAAAAGAUUUAUAUAUCAUACAUAUUUUGUUGU [OsNCED4 3'-UTR RNA],binding,[1],binds more weakly
same,binding,[2],binds
